{"source": "patent US20190338002A1", "about": "(Pieris, published 2019)", "binders": {"B1": {"name": "lipocalin mutein SEQ ID NO: 11 (designed binder)", "chain": "QDSTSDLIPAPPLSKVPLQQNFQDNQFHGKWYVVGWAGNTLLREDKDPIKMQAIIYELKEDRSYNVTWVYFSEKKCNYHIETFVPGSQPGEFTLGTIKSYPGETPILVRVVSTNYNQHAMVFFKGVNQNREIFEIILYGRTKELTNELKENFIRFSKSLGLPENHIVFPVPIDQCIDGSAWSHPQFEK", "notes": "biotinylated by NHS chemistry for capture in SPR"}}, "key": {"[1]": {"biological_target": "T1, human alpha CGRP (SEQ ID NO: 80) (human, not fully specified)", "T1 peptide": "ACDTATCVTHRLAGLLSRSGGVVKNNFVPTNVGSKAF", "test": "cell-based or functional assay"}, "[2]": {"biological_target": "T2, human beta CGRP (SEQ ID NO: 81) (human, not fully specified)", "T2 peptide": "T1 peptide with D3N, V22M, N25S", "test": "cell-based or functional assay"}, "[3]": {"biological_target": "T3, rat alpha CGRP (SEQ ID NO: 82) (rat)", "T3 peptide": "T1 peptide with A1S, D3N, N25D, K35E", "test": "cell-based or functional assay"}, "[4]": {"biological_target": "T4, rat beta CGRP (SEQ ID NO: 83) (rat, not fully specified)", "T4 peptide": "T1 peptide with A1S, D3N, N25D", "test": "cell-based or functional assay"}, "[5]": {"biological_target": "T1, human alpha CGRP (SEQ ID NO: 80)", "test": "SPR, 37 C, mutein captured, CGRP analyte", "method_in_brief": "(§1)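 Biotinylated lipocalin muteins were captured on streptavidin-oligo CAP chip, and CGRP was injected at 30, 3 and 0.3 nM or at a single 25 nM at 37 °C (180 s association, 5400 s dissociation) in HBS-EP+. Double-referenced sensorgrams were globally fit to a 1:1 model for ka and kd.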"}, "[6]": {"biological_target": "T2, human beta CGRP (SEQ ID NO: 81)", "test": "SPR, 37 C, mutein captured, CGRP analyte", "method_in_brief": "as §1"}, "[7]": {"biological_target": "T3, rat alpha CGRP (SEQ ID NO: 82)", "test": "SPR, 37 C, mutein captured, CGRP analyte", "method_in_brief": "as §1"}, "[8]": {"biological_target": "T4, rat beta CGRP (SEQ ID NO: 83)", "test": "SPR, 37 C, mutein captured, CGRP analyte", "method_in_brief": "as §1"}, "[9]": {"biological_target": "T1, human alpha CGRP (SEQ ID NO: 80)", "test": "SPR Biacore 37 °C, mutein captured as ligand, ha CGRP (1-37) injected, 1:1 fit; repeat run 130208_NAN-DS-047 (not the run of Table 2) [contd]", "description": "(§2) The Biotin CAPture Kit (GE Healthcare) was used to immobilize biotinylated lipocalin muteins to a chip surface. Muteins were biotinylated using standard NHS chemistry. Undiluted Biotin CAPture Reagent (streptavidin conjugated with ss-DNA oligo) was captured on a Sensor Chip CAP with the pre-immobilized complementary ss-DNA oligo. Thereafter, biotinylated muteins at 1 μg/mL were applied for 300 s at a flow rate of 5 μL/min.\n(§3) CGRP species were applied in three concentrations of 30 nM, 3 nM and 0.3 nM at a flow rate of 30 μL/min or in a single concentration of 25 nM per cycle as shown in FIG. 2. The dilutions were injected with association times of 180 s and dissociation times of 5400 sec to obtain ka and kd information. Regeneration of the chip surface was achieved by injecting 6 M Guanidinium-HCl+0.25 M NaOH (120 s) with a flow rate of 10 μL/min. Injection of regeneration solutions was followed by an extra wash step with HBS-EP+(1×; BR-1006-69; GE Healthcare) running buffer and a stabilization period of 120 s.\n(§4) The data were double-referenced by subtraction of the corresponding signals measured for the control channel (loaded with Biotin CAPture reagent only) and by subtraction of buffer injections from the binding responses. Association rate constant ka and dissociation rate constant kd for the binding reaction were determined using Biacore T200 Evaluation Software V2.0 for data processing and kinetic fitting. The data were globally fit with 1:1 binding model."}, "[10]": {"biological_target": "T2, human beta CGRP (SEQ ID NO: 81)", "test": "SPR Biacore 37 °C, mutein captured as ligand, hb CGRP (1-37) injected, 1:1 fit; repeat run 130208_NAN-DS-047 (not the run of Table 2) [contd]", "description": "as §2, §3, §4"}, "[11]": {"biological_target": "T3, rat alpha CGRP (SEQ ID NO: 82)", "test": "SPR Biacore 37 °C, mutein captured as ligand, ra CGRP (1-37) injected, 1:1 fit; repeat run 130208_NAN-DS-047 (not the run of Table 2) [contd]", "description": "as §2, §3, §4"}, "[12]": {"biological_target": "T4, rat beta CGRP (SEQ ID NO: 83)", "test": "SPR Biacore 37 °C, mutein captured as ligand, rb CGRP (1-37) injected, 1:1 fit; repeat run 130208_NAN-DS-047 (not the run of Table 2) [contd]", "description": "as §2, §3, §4"}, "[13]": {"biological_target": "T4, rat beta CGRP (SEQ ID NO: 83)", "test": "SPR Biacore 37 °C, mutein captured as ligand, rb CGRP sample PL1830 injected, 1:1 fit; repeat run 130903_NAN-DS-058 (not the run of Table 2) [contd]"}, "[14]": {"biological_target": "T1, human alpha CGRP (SEQ ID NO: 80)", "test": "SPR Biacore 37 °C, mutein captured as ligand, sample PL1827 (ha CGRP) injected, 1:1 fit; repeat run 130903_NAN-DS-058 (not the run of Table 2) [contd]", "description": "as §2, §3, §4"}, "[15]": {"biological_target": "T2, human beta CGRP (SEQ ID NO: 81)", "test": "SPR Biacore 37 °C, mutein captured as ligand, sample PL1828 (hb CGRP) injected, 1:1 fit; repeat run 130903_NAN-DS-058 (not the run of Table 2) [contd]", "description": "as §2\n(§5) CGRP species were applied in three concentrations of 30 nM, 3 nM and 0.3 nM at a flow rate of 30 μL/min or in a single concentration of 25 nM per cycle as shown in FIG. 2. The dilutions were injected with association times of 180 s and dissociation times of 5400 sec to obtain ka and kd information. Regeneration of the chip surface was achieved by injecting 6 M Guanidinium-HCl+0.25 M NaOH (120 s) with a flow rate of 10 μL/min. […]\n(§6) The data were double-referenced by subtraction of the corresponding signals measured for the control channel (loaded with Biotin CAPture reagent only) and by subtraction of buffer injections from the binding responses. Association rate constant ka and dissociation rate constant kd for the binding reaction were determined using Biacore T200 Evaluation Software V2.0 for data processing and kinetic fitting. […]"}, "[16]": {"biological_target": "T3, rat alpha CGRP (SEQ ID NO: 82)", "test": "SPR Biacore 37 °C, mutein captured as ligand, sample PL1829 (ra CGRP) injected, 1:1 fit; repeat run 130903_NAN-DS-058 (not the run of Table 2) [contd]", "description": "as §2, §5, §6"}, "[17]": {"biological_target": "T4, rat beta CGRP (SEQ ID NO: 83)", "test": "SPR Biacore 37 °C, mutein captured as ligand, sample PL1830 (rb CGRP) injected, 1:1 fit; repeat run 130903_NAN-DS-058 (not the run of Table 2) [contd]", "description": "as §2, §5, §6"}}, "note": "Substitutions are numbered along the chain they refer to."}
{"binder": "B1", "values": [{"measurement": "IC50, CGRP-induced cAMP production, SK-N-MC cells", "setting": "[1]", "value": 0.11, "unit": "nM"}, {"measurement": "IC50, CGRP-induced cAMP production, SK-N-MC cells", "setting": "[2]", "value": 0.22, "unit": "nM"}, {"measurement": "IC50, CGRP-induced cAMP production, L6 cells", "setting": "[3]", "value": 0.08, "unit": "nM"}, {"measurement": "IC50, CGRP-induced cAMP production, L6 cells", "setting": "[4]", "value": 0.06, "unit": "nM"}, {"measurement": "Kd", "setting": "[5]", "value": 0.015, "unit": "nM"}, {"measurement": "koff", "setting": "[5]", "value": "4.55e-05", "unit": "s⁻¹"}, {"measurement": "kon", "setting": "[5]", "value": "3.08e+06", "unit": "M⁻¹ s⁻¹"}, {"measurement": "Kd", "setting": "[6]", "value": 0.007, "unit": "nM"}, {"measurement": "koff", "setting": "[6]", "value": "5.63e-05", "unit": "s⁻¹"}, {"measurement": "kon", "setting": "[6]", "value": "7.91e+06", "unit": "M⁻¹ s⁻¹"}, {"measurement": "Kd", "setting": "[7]", "value": 0.08, "unit": "nM"}, {"measurement": "koff", "setting": "[7]", "value": "7.6e-05", "unit": "s⁻¹"}, {"measurement": "kon", "setting": "[7]", "value": 984000, "unit": "M⁻¹ s⁻¹"}, {"measurement": "Kd", "setting": "[8]", "value": 0.042, "unit": "nM"}, {"measurement": "koff", "setting": "[8]", "value": "7.3e-05", "unit": "s⁻¹"}, {"measurement": "kon", "setting": "[8]", "value": "1.74e+06", "unit": "M⁻¹ s⁻¹"}, {"measurement": "koff", "setting": "[9]", "value": "5.31e-05", "unit": "s⁻¹"}, {"measurement": "kon", "setting": "[9]", "value": "2.02e+06", "unit": "M⁻¹ s⁻¹"}, {"measurement": "koff", "setting": "[10]", "value": "4.61e-05", "unit": "s⁻¹"}, {"measurement": "kon", "setting": "[10]", "value": "4.14e+06", "unit": "M⁻¹ s⁻¹"}, {"measurement": "koff", "setting": "[11]", "value": "7.72e-05", "unit": "s⁻¹"}, {"measurement": "kon", "setting": "[11]", "value": 867000, "unit": "M⁻¹ s⁻¹"}, {"measurement": "koff", "setting": "[12]", "value": "5.56e-05", "unit": "s⁻¹"}, {"measurement": "kon", "setting": "[12]", "value": 969000, "unit": "M⁻¹ s⁻¹"}, {"measurement": "koff", "setting": "[13]", "value": "6.38e-05", "unit": "s⁻¹"}, {"measurement": "koff", "setting": "[14]", "value": "6.55e-05", "unit": "s⁻¹"}, {"measurement": "kon", "setting": "[14]", "value": "1.76e+06", "unit": "M⁻¹ s⁻¹"}, {"measurement": "koff", "setting": "[15]", "value": "3.73e-05", "unit": "s⁻¹"}, {"measurement": "kon", "setting": "[15]", "value": "2.41e+06", "unit": "M⁻¹ s⁻¹"}, {"measurement": "koff", "setting": "[16]", "value": "8.08e-05", "unit": "s⁻¹"}, {"measurement": "kon", "setting": "[16]", "value": "1.58e+06", "unit": "M⁻¹ s⁻¹"}, {"measurement": "kon", "setting": "[17]", "value": "1.75e+06", "unit": "M⁻¹ s⁻¹"}]}
